We go through 8 molecules from patent US20240287172A1 (SCIRHOM, published 2024).

The target of this test is T1, hiR2-FL-D535-T7 (deletion of D535) (human, UniProt Q6PJF5 1-856).
T1 construct: single amino acid deletion
T1 sequence: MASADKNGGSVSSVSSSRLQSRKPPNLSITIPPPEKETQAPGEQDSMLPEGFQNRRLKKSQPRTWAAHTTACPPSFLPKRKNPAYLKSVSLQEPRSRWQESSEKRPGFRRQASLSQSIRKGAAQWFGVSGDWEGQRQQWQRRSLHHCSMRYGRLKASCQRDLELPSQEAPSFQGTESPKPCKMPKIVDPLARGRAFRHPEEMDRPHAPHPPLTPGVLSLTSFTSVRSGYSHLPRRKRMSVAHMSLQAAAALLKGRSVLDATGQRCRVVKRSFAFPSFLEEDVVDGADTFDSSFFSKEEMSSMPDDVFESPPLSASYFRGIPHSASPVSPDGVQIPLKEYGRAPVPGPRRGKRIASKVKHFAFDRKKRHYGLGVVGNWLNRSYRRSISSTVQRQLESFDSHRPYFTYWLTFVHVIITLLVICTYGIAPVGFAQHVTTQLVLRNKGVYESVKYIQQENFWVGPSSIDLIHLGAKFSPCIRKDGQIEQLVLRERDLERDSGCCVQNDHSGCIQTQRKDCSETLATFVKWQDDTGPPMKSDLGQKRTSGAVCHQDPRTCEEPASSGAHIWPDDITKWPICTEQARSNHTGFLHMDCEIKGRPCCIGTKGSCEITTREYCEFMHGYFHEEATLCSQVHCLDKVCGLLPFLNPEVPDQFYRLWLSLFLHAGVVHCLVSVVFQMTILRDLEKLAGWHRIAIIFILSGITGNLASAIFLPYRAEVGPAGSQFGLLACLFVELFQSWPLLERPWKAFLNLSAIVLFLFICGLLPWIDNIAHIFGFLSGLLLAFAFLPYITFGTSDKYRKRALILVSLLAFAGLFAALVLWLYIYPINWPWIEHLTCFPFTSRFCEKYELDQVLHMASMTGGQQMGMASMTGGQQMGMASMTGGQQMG
Briefly: FACS, MEF-DKO cells, 3 µg/ml. From the text:
In brief, immortalized MEF-DKO-hiR2-FL-G498A-T7, MEF-DKO-hiR2-FL-Q502R-T7, MEF-DKO-hiR2-FL-I509V-T7, MEF-DKO-hiR2-FL-Q512S-T7, MEF-DKO-hiR2-FL-R513E-T7, MEF-DKO-hiR2-FL-K514E-T7, MEF-DKO-hiR2-FL-D515E-T7, MEF-DKO-hiR2-FL-E518S-T7, MEF-DKO-hiR2-FL-T522V-T7, MEF-DKO-hiR2-FL-F523W-T7, MEF-DKO-hiR2-FL-Q527P-T7, MEF-DKO-hiR2-FL-D528I-T7, MEF-DKO-hiR2-FL-D529H-T7, MEF-DKO-hiR2-FL-T530P-T7, MEF-DKO-hiR2-FL-G531S-T7, MEF-DKO-hiR2-FL-P532A-T7, MEF-DKO-hiR2-FL-M534-T7, MEF-DKO-hiR2-FL-D535-T7, MEF-DKO-hiR2-FL-K536-T7, MEF-DKO-hiR2-FL-S537E-T7, MEF-DKO-hiR2-FL-D538L-T7, MEF-DKO-hiR2-FL-L539A-T7, MEF-DKO-hiR2-FL-Q541H-T7, MEF-DKO-hiR2-FL-T544Q-T7, MEF-DKO-hiR2-FL-S545F-T7, MEF-DKO-hiR2-FL-A547S-T7, MEF-DKO-hiR2-FL-T555V-T7, MEF-DKO-hiR2-FL-E557D-T7, MEF-DKO-hiR2-FL-A560S-T7 and MEF-DKO-hiR2-FL-S562E-T7 cells were harvested with 10 mM EDTA in PBS, washed and resuspended in FACS buffer (PBS, 3% FBS, 0.05% sodium azide), and seeded in Nunc U-bottom 96-well plates (Thermo Fisher Scientific, USA) at approximately 3×10⁵ cells per well. To pellet cells and remove supernatants, the plates were centrifuged at 1,500 rpm and 4° C. for 3 minutes. For primary staining, cells were resuspended in 100 μl per well of either FACS buffer alone (controls) or the purified antibodies 3, 5, 16, 22, 34, 42, 43, 44, 48, and 50 of the invention at 3 μg/ml in FACS buffer and incubated on ice for 1 hour. Afterwards, plates were centrifuged at 1,500 rpm and 4° C. for 3 minutes and washed twice with 200 μl per well of FACS buffer. For secondary staining, cells were spun down and resuspended in 100 μl per well of PE-conjugated goat anti-mouse IgG F(ab′)2 detection fragment (Dianova, Germany) diluted 1:100 in FACS buffer. Protected from light, the cell suspensions were incubated on ice for 1 hour. Plates were then centrifuged at 1,500 rpm and 4° C. for 3 minutes and washed three times with 200 μl per well of FACS buffer. Finally, cells were resuspended in 150 μl per well of FACS buffer and analyzed using a BD Accuri™ C6 Plus flow cytometer (Becton Dickinson, Germany).
Background: Flow cytometry measures light scatter and fluorescence of single cells or particles in a stream.

B1: antibody 34 (antibody, V domains shown)
VH: QVTLKESGPGILQPSQTLSLTCSFSGFSLSTFSLGVGWIRQSSGKGLEWLAHIWWDDEKYYNPALKSRLTISKDTSKNQVFLKIANVDAADTATYYCARAYYSKSYYALDYWGQGTSVTVSS
VL: DIQMTQSPSSLSASLGERVSLTCRASQEISGYLSWLQQKPDGTIKRLIYAASTLDSGVPKRFSGSRSGSDYSLAISSLESEDFADYYCLQYANFPFTFGSGTKLEIK
notes: mouse IgG, kappa light chain; also called clone #34; purified antibody 34
For B1, the “loss of binding vs wild type” value is at least 95%.

B2: antibody 16 (antibody, V domains shown)
VH: QVTLKESGPGILQPSQTLSLTCSFSGFSLSTFALGVGWIRQPSGRGLEWLAHIWWDDDKYYNPALKSRLTISKDTSKNHVFLKIANVDTADTATYYCARITTYYYGMDYWGQGTSVTVSS
VL: DIVLSQSPATLSVTPGDSVSLFCRASQSIGNHLHWYQQESHASPRLLIKYASQSISGIPSRFSGSGSGTDFTLSINSVETEDFGMYFCQQSYNWPLTFGAGTKLELK
notes: mouse IgG, kappa light chain; also called clone #16; purified antibody 16
Consider B2, for which the “loss of binding vs wild type” value is at least 95%.

B3: antibody 3 (antibody, V domains shown)
VH: QVTLKESGPGILQPSQTLSLTCSFSGFSLTTFAMGIGWVRQPSGKGLEWLAHIWWDGEKYNNPVLKSRLTISKDTSKNQVFLRIANVDTPDTATYYCARISSIYYIIDNWGQGTSVTVSS
VL: DIVLTQSPATLSVTPGHSVSLSCRASQSISNNLHWYQKKSHESPRLLIKYVSQSISGIPSRFSGSGSGTDFTLSINSVETEDFGMYFCQQSYNWPLTFGAGTKLELK
notes: mouse IgG, kappa light chain; also called clone #3; purified antibody 3
B3: the “loss of binding vs wild type” value was at least 95%.

B4: antibody 5 (antibody, V domains shown)
VH: QVTLKESGPGILQPSQTLSLTCSFSGFSLSTFGMGVGWIRQPSGKGLEWLAHIWWDDEKYYNSALKSRLTISKATSKNQAFLKIANVDTADTATYYCARISNYGSNYWYFNVWGTGTTVTVSS
VL: QVVLTQSPALMSASPGEKVTMTCSAGSSVSCMYWYQQKPGSSPRVLIYDTSNLASGVPARFTGSGSGTSYSLTISRMEAEDAASYYCQQWNSYPLTFGAGTKLELK
notes: mouse IgG, kappa light chain; also called clone #5; purified antibody 5
For the molecule B4, the “loss of binding vs wild type” value was at least 95%.

B5: antibody 42 (antibody, V domains shown)
VH: QVTLKESGPGILQPSQTLSLTCSLSGFSLSTFGRGVGWIRQPSGKGLEWLAHIWWDDEKYYNPALKSRLTISKDTSKNQVFLRIANVDTADTATYYCARIQNYGSNYWYFDVWGTGTTVTVSS
VL: LIVLTQSPAIMSASPGEKVTMTCGATSRISYMFWYQQKPGSSPRVLIYDTSNLASGVPVRFSGSGSGTSYSLTISRVEAEDVATYYCQQWNSYPLTFGAGTKLELK
notes: mouse IgG, kappa light chain; also called clone #42; purified antibody 42
Consider B5, for which the “loss of binding vs wild type” value was at least 95%.

B6: antibody 43 (antibody, V domains shown)
VH: QVALKESGPGILQPSQTLSLTCSFSGFSLSTFGMGVGWIRQSSGKGLEWLANIWWDDDKYYNPALKSRLTISKDASKNQAFLKIANVDTADTATYYCARIGNYGSNYWYFDVWGTGTTVTVSS
VL: QIVLTQSPAIMSASPGERVTMTCSANSRISYMYWYQQKPGSSPRLLIYDTSNLASGVPVRFSGSGSGTSYSLTISRMEAEDAATYNCQQWSSYPLTFGAGTKLELK
notes: mouse IgG, kappa light chain; also called clone #43; purified antibody 43
Turning to B6, the “loss of binding vs wild type” value is at least 95%.

B7: antibody 44 (antibody, V domains shown)
VH: QVTLKESGPGILQPSQTLSLTCSFSGFSLSTFGMGVGWIRQPSEKGLEWLAHIWWDDDKYYNPALKSRLTISKDTSKNQIFLKITNVDTAETATYYCSRIGNYGSNYWYFDVWGTGTTVTVSS
VL: QIVLTQSPAVMSASPGEKVTMTCTASSSVYYMYWYQQTPGSSPRLLIYDTSNLASGVPVRFSGSGSGTSYSLTISRMEAEDAATYYCQQWNTYPLTFGAGTKLELK
notes: mouse IgG, kappa light chain; also called clone #44; purified antibody 44
Take B7: the “loss of binding vs wild type” value is at least 95%.

B8: antibody 22 (antibody, V domains shown)
VH: QVTLKESGPGILQPSQTLSLTCSFSGFSLSTFGMGVGWIRQPSGKGLEWLAHIWWDDEKYYNSALKSRLTISKATSKNQVFLKIANVDTADTATYYCARISNYGSNYWYFNVWGTGTTVTVSS
VL: QVVLTQSPALMSASPGEKVTMTCSAGSSVSYMYWYQQKPGSSPRVLIYDTSNLASGVPARFTGSGSGTSYSLTISRMEAEDAATYYCQQWNSYPLTFGAGTKLELK
notes: mouse IgG, kappa light chain; also called clone #22; purified antibody 22
As for B8, the “loss of binding vs wild type” value was at least 95%.
